Reference: patent publication US20260002151, “COMPOSITIONS AND METHODS FOR THE MODIFICATION AND REGULATION OF LIVER GENE EXPRESSION” (Mammoth Biosciences, Inc., published 2026)

T1: CasM.265466 D220R (unidentified, D220R)
T1 chain: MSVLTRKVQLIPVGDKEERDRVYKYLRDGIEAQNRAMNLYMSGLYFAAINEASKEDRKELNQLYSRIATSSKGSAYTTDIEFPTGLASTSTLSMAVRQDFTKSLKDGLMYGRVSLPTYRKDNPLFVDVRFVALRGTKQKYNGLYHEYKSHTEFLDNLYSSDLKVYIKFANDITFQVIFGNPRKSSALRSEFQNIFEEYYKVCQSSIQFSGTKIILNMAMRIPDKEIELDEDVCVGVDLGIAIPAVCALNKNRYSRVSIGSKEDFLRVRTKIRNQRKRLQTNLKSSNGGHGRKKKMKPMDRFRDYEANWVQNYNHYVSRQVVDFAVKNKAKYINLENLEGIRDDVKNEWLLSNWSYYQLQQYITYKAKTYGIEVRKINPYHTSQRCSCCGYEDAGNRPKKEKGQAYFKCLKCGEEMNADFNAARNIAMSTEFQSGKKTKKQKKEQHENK

B1: R16927 guide ; APOC3 target of R16927 (ssRNA ; dsDNA)
RNA: ACAGCUUAUUUGGAAGCUGAAAUGUGAGGUUUAUAACACUCACAAGAAUCCUGAAAAAGGAUGCCAAACAGUUCUGGGAUUUGGACCCU
DNA 1: AGTTCTGGGATTTGGACCCT
DNA 2: AGGGTCCAAATCCCAGAACT
B2: R16929 guide ; APOC3 target of R16929 (ssRNA ; dsDNA)
RNA: ACAGCUUAUUUGGAAGCUGAAAUGUGAGGUUUAUAACACUCACAAGAAUCCUGAAAAAGGAUGCCAAACACCUCAGGGUCCAAAUCCCA
DNA 1: ACCTCAGGGTCCAAATCCCA
DNA 2: TGGGATTTGGACCCTGAGGT
B3: R16928 guide ; APOC3 target of R16928 (ssRNA ; dsDNA)
RNA: ACAGCUUAUUUGGAAGCUGAAAUGUGAGGUUUAUAACACUCACAAGAAUCCUGAAAAAGGAUGCCAAACGACCCUGAGGUCAGACCAAC
DNA 1: GACCCTGAGGTCAGACCAAC
DNA 2: GTTGGTCTGACCTCAGGGTC

Target: T1, CasM.265466 D220R
Assay: cell_activity; AAV8 in hAPOC3 mice, vehicle 936; PAM NNTN
Excerpt: Samples were collected from mice at 2 and 4 weeks.
Levels of human APOC3 protein in liver were quantified by ELISA. CasM.265466 variant D220R and multiple APOC3 guide RNAs tested reduced human ApoC3 protein in liver at 2 weeks and 4 weeks. […] Liver and body weights were normal at 0, 2 and 4 weeks. At four weeks post injection ALT levels were reduced in mice that received CasM.265466 variant D220R or CasPhi.12 variant L26R when compared those of mice receiving vehicle only. […] The guide IDs shown in the legend from top to bottom correspond to the data points in the graphs from left to right.

Q: With B1 as the binder, how does the activity read?
A: Its activity is 145 mg/dL serum triglycerides.

Q: B2 was tested. Which activity did it give?
A: The activity was 247 mg/dL serum triglycerides.

Q: Which activity does the source give for B3 here?
A: The activity was 190 mg/dL serum triglycerides.
